Source: the RNAGym collection of RNA variant scans (doi:10.1073/pnas.2313332121)

B1: TPR t1 (parent)
chain: GACCAAUCUGCCCUCAGAGCUCGAGAACAUCUUCGGAUGCAGAGGAGGCAGGCUUCGGUGGCGCGAUAGCGCCAACGUCCUCAACCUCCAAUGCAUCCCACCACAUGAUGAUGCCUGAAGAGCCUUGGUUUUUUG

Variants of: B1
Assay: polymerase ribozyme fitness, log enrichment relative to wild type (log ratio); higher = more active; in vitro selection for triplet polymerase activity
Method in brief: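 A single round of triplicate in vitro selection, including frozen incubation at −7 °C, was applied to PCR-built, transcribed mutant libraries of each subunit of a heterodimeric triplet polymerase ribozyme. Illumina sequencing of input and output libraries retained genotypes with ≥10 input reads and ≥1 read per output. Fitness is the base-2 logarithm of genotype enrichment divided by wild-type enrichment, from inverse-variance-weighted replicate averages.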

Variant	polymerase ribozyme fitness (log ratio)
U21A U106A U132A	-0.182
C20G C53G C72U	-3.94
C20A G60A	-2.83
U21C A27G C123G	-0.817
G19C C22U A46C C114U	-5.79
G19U A105U U106A G113C	-0.75
U21C A90C	-1.17
A18U U87G G120A	-1.48
C20A C49U C72U U78C	-3.44
G19U C73A C80U U112C C114A U126A	-1.24
U21G G42A A121G	-3.11
U21C U96G C114U	-1.48
C20U U30A G39C C53U C56U G60C U92C G117U A119G	-6.79
C20U G110U	-3.13
U21G A46C C49G	-3.41
U21A A41C A90C G93A	-4.16
C20U G61A C124A G135C	0.689
A18U U55G C82G G120A	-3.38
G19U A50U C124G	-2.97
C20U G45U G52A C73G C94U C104U	-4.54
C20A G63C	-3.31

Variant	polymerase ribozyme fitness (log ratio)
U21A G135U	-0.915
C20U A27C A84U C123A	-5.42
C22A A26U A27U C76U A95G G110A	-6.96
G19C C101A G120U C124A G135C	-3.1
C20A C89A	-3.94
C20G C123A	-4.02
G19C G63A U87C	-3.24
U21A G39U	-1.5
C20U A43G U78G U87A C89G	-5.4
C20U G44U	-2.46
A18U U92G	-3.54
C20U C72G	-1.56
C20U C72A	-1.55
G19A G47A C88U	-2.72
C20A A84C C88A U92G C114A	-4.5
C20U U112C	0.258
C20U U112A	0.887
U21A C40G U125A	-1.07
C20G C124A	-2.2
G19C C20A	-6.28
C20A G45C	-3.43

Variant	polymerase ribozyme fitness (log ratio)
C20U U32G	-6.33
C20A G45U C53G G63C C88U A111U U125G	-5.87
G19A U38C G63U C114A A121G	-4.24
C20U A26U U32C G69U	-3.17
U21G U87A U133G G135U	-1.41
C20U G69C C94U	-2.8
G19A C124A U129C	-2.22
A18U U21C G36A C114U	-3.69
C20G U55C G57A A90G	-5.05
U21A A27C U78G A84U C114A	-6.87
C20G A90C A95U	-4.06
C20U A83G C101A G117U	-5.42
C20U C85A	-3.94
C20A C123G	-0.867
C20U G69U	-0.346
U21C A37C U81A	-3.15
C20U G45U	-2.33
C20U G45A	-2.57
C20U C28G G69C G110U	-5.16
U21A A50C	-0.532
U21A A27C U32G G71A U112C	-5.9

Variant	polymerase ribozyme fitness (log ratio)
G19A C62A U78A U81A C101G G113U U130A	-6.38
G19A C40U G45C G61C C124A	-3.57
G19A A29C U109A G120C	-5.43
G19U G39C C53U C124A	-2.93
U21A C49A C73A C115A U130G	0.139
G19A G69A	-4.57
G19A G69U	-1.71
C20U A95C U129A	-2.94
G19C C62U C64U G120C	-2.12
C20G C49A U96G U112G C115G C123A	-7.57
G19U A41U G71A	-5.44
C20A G36C U126C	-4.66
U21A C56G C73A C99G G120A U131C	-7.97
G19A G61C	-4.27
C20U C64U C104A G107C G128A	-6.14
C20G C40A A66G G71A G93U U112C	-6.06
C20A A46U C72G	-4.27
U21G C56U	-1.08
C20A U112C	-1.35
C20A U112G	-1.72
